In the oligonucleotide strings, read from the 5' end, every base follows the letter of its sugar. An asterisk marks phosphorothioate; unmarked linkages are phosphodiester. Other units and linkages are bracketed, terminal groups are in braces. A string of capitals states the bases alone. Where no end group is shown, it is not given here. [ ]: non-standard residue; d: D form. {L001} = PTH1 ligand L001 attached via a dibenzocyclooctyne-succinyl-hexylamino linker; l = locked nucleic acid (LNA); [5mC] = 5-methylcytosine; Aib = CC(C)(N)C(=O)O; d = 2'-deoxy (DNA); m = 2'-O-methyl; r = 2'-OH (RNA)
Tests used:
[1] = Tm of ligand-bound HDO6 duplex; format: physicochemical; conditions: HDO6 with ligand introduced into complementary strand
mouse Malat1 ncRNA [2] = assay: Malat1 ncRNA expression in mouse kidney after intravenous or subcutaneous PTH1 ligand-HDO (Example 5); format: in vivo; conditions: intravenous, 1 μmol/kg
Procedure: The nucleic acid complexes used in Example 5 are each a conjugate of 16-mer HDO or ASO targeting mouse Malat1 ncRNA prepared in the example above and the PTH1 ligand. The present inventors adjusted the oligo complex with physiological saline (Otsuka Pharmaceutical Co., Ltd.), the oligo complex for animal evaluation was denatured in a block bath (CDB-105, AS ONE Corporation), and the double-stranded HDO for cell evaluation was subjected to an annealing procedure comprising denaturing at 90° C. for 10 minutes and then naturally cooling to room temperature over a period of about 2 hours in a T100 thermal cycler (Bio-Rad). […]
For mRNA extraction, tissue was fractured by bead crushing using a TissueLyser II (QIAGEN). Total RNA was extracted from the solution containing fractured tissue using the ReliaPrep™ RNA Tissue Miniprep System (Promega Corporation). cDNA was prepared from total RNA by reverse transcription using the PrimeScript™ RT Master Mix (TaKaRa). mRNA expression of each gene was measured using the real-time PCR system (StepOnePlus, Applied Biosystems). […]
All the measured values were indicated in terms of “mean±standard deviation.” Statistical analysis was performed using GraphPad Prism 9.4.0. […]

[3] = Intrarenal distribution, immunostained kidney images after L001-HDO6-Alexa488 (Example 4); format: in vivo, mouse; conditions: 1 μmol/kg, c57BL/6J mice
Procedure: The fluorescence-labeled ASO comprising Alexa488 bound to the 5′ terminus of the antisense strand (SEQ ID NO: 179) prepared in Example 2 was annealed to the L001 complementary strand (SEQ ID NO: 180) by the method described in Example 2 to form a duplex complex. Thus, the fluorescence-labeled HDO (L001-HDO6-Alexa488) was prepared.
The immunohistochemical test was performed with the use of c57BL/6J mice (12 mice). The fluorescence-labeled HDO (L001-HDO6-Alexa488) was intravenously administered to mice at […] once, a blood sample was taken from the heart under anesthesia with isoflurane 10 minutes, 6 hours, 24 hours, and 72 hours later, the kidney was perfused by left ventricular cannulation with 10 ml of saline followed by 10 ml of 4% paraformaldehyde solution, and the kidney was extracted from the mice. The extracted kidney was soaked in 4% paraformaldehyde to prepare frozen sections. The frozen sections were stained with Nephrin (the primary antibody: mouse Nephrin affinity purified polyclonal antibody, Goat IgG (AF3459), R&D Systems) and Alexa Fluor 594 (the secondary antibody: chicken anti-goat IgG (H+L) (A-21468), Invitrogen) to observe the renal glomerulus, and the frozen sections were stained with a DAPI (4′,6-diamidino-2-phenylindole) solution to observe the DNA-containing cell nuclei. The fluorescent images of the pathological sections were incorporated with the use of the Olympus VS120 Slide Scanning System.
The photograph in the lower right is an image obtained by superposing the aforementioned 3 photographs superposed on top of each other (merged).

mouse Malat1 ncRNA [4] = assay: mMalat1 ncRNA expression in mouse liver and kidney after intravenous L001-HDO6 (Example 3); format: in vivo; conditions: c57BL/6J mice, 1 μmol/kg intravenous, Day 3; compared with vehicle and L001 complementary strand groups
Procedure: The nucleic acid complex used in Example 3 is L001-HDO6, which is a conjugate of 16-mer HDO targeting mouse Malat1 ncRNA prepared in Example 2 and the L001 ligand. The present inventors adjusted the oligo complex to 100 μM with physiological saline (Otsuka Pharmaceutical Co., Ltd.), and double-stranded HDO was subjected to an annealing procedure comprising denaturing at 90° C. for 5 minutes and then naturally cooling to room temperature over a period of about 2 hours in a block bath (CDB-105, AS ONE Corporation).
Species differences in the PTH1 receptor, PTH, and PTHrP are insignificant between humans and mice. […]
Method Mice were divided into groups depending on body weights: the vehicle (saline, Otsuka Pharmaceutical Co., Ltd.) administration group; the L001 complementary strand (1 μmol/kg) administration group; and the L001-HDO6 (1 μmol/kg) administration group (each group consisting of 5 mice (n=5)). […] On the day of autopsy, body weight of each mouse was measured, a blood sample was taken from the heart under anesthesia with isoflurane (introduced at 3% to 5%, maintained at 1% to 3%) (Terumo syringe SS-01P2525, containing the anticoagulant heparin), and mice were euthanized by exsanguination. […]
All the measured values were indicated in terms of “mean±standard deviation.” For statistical analysis, the one-way analysis of variance (ANOVA) was performed using GraphPad Prism 7.04. […]

[5] = molecular target: T1, mouse Pth1R (mPth1R), stably expressed on NIH/3T3 cells (mouse, UniProt P41593 27-591); assay: cell-based or functional assay
T1 sequence (looked up): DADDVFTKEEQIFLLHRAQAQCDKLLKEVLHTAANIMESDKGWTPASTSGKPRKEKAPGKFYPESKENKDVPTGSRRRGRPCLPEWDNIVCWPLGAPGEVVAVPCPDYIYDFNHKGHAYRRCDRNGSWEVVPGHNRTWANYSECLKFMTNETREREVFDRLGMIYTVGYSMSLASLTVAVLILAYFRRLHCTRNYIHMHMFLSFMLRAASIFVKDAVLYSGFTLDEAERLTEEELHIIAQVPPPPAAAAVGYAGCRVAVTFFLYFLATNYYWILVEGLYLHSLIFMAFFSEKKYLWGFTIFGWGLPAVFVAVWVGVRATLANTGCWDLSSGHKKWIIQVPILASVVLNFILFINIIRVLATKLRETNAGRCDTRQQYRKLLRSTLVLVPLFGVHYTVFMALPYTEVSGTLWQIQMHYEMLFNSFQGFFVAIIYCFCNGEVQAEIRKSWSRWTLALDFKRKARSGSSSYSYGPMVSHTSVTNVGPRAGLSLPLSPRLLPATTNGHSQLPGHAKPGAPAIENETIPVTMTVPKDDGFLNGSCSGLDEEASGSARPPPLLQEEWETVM

[6] = 10 minutes after single intravenous administration

L001-HDO6: HDO targeting mouse Malat1 ncRNA: antisense strand SEQ ID NO: 179, complementary strand SEQ ID NO: 180 bound to PTH1 ligand L001 (antisense l[5mC]*lT*lA*dG*dT*dT*dC*dA*dC*dT*dG*dA*dA*lT*lG*l[5mC]; sense {L001}-mG*mC*mA*rUrUrCrArGrUrGrArArC*mU*mA*mG)
Tm [1]: 64 °C
Malat1 ncRNA expression in the kidney (mouse Malat1 ncRNA [2]; Day 3, compared with the saline administration group): lowered to a statistically significant extent
Malat1 ncRNA expression in the kidney (mouse Malat1 ncRNA [2]; Day 3, in comparison with HDO without ligand): lowered to a statistically significant extent
fluorescence Alexa-488 in the glomerulus ([3]; 6, 24, or 72 hours after single intravenous administration): no fluorescence was observed
fluorescence Alexa-488 in kidney tubular cells [3, 6]: observed
fluorescence Alexa-488 in the glomerulus [3, 6]: slightly observed
fluorescence Alexa-488 in kidney tubular cells ([3]; 6 hours after single intravenous administration): intensified
fluorescence Alexa-488 in kidney tubular cells ([3]; 24 hours after single intravenous administration): maximum fluorescence was observed
fluorescence Alexa-488 in kidney tubular cells ([3]; 72 hours after single intravenous administration): still observed in many kidney tubules
mMalat1 ncRNA expression level in the kidney (mouse Malat1 ncRNA [4]): lowered in the L001-HDO6 administration group to a significant extent
mMalat1 ncRNA expression level in the liver (mouse Malat1 ncRNA [4]): lowered in the L001-HDO6 administration group to a significant extent

AVSEHQLLHDKGKSIQDLRRRELLEKLL[Aib]KLHTAK (not fully specified (residue 35); also: prints K at position 33) [L021-HDO6]
IC50 of lowering Malat1 ncRNA expression level in the mPth1R-stably expressing cell line [5]: 46.8 nM

B1: L010-HDO6 (peptide)
peptide: DKGKSIQDLRRRELLEKLLAKLHKA
modifications: not fully specified (residue 24); printed as DKGKSIQDLRRRELLEKLLAKLH(K-PEG3-Unit)A
IC50 of lowering Malat1 ncRNA expression level in the mPth1R-stably expressing cell line [5]: 167 nM

B2: L005-HDO6 (peptide)
peptide: HQLLHDKGKSIQDLRRRELLEKLLAKLHKA
modifications: not fully specified (residue 29); printed as HQLLHDKGKSIQDLRRRELLEKLLAKLH(K-PEG3-Unit)A
IC50 of lowering Malat1 ncRNA expression level in the mPth1R-stably expressing cell line [5]: 121 nM

AVSEHQLLHDKGKSIQDLRRRELLEKLLAKLHKA (not fully specified (residue 33)) [L001-ASO]
IC50 of lowering Malat1 ncRNA expression level in the mPth1R-stably expressing cell line [5]: 1.25 nM

SEHQLLHDKGKSIQDLRRRELLEKLLAKLHKA (not fully specified (residue 31)) [L003-HDO6]
IC50 of lowering Malat1 ncRNA expression level in the mPth1R-stably expressing cell line [5]: 88.9 nM

Source: patent US20260185102A1, “LIGAND-BINDING NUCLEIC ACID COMPLEX” (RENA THERAPEUTICS INC., priority 2021, published 2026)
